{
  "source": "FireProtDB (doi:10.1021/bi9928694)",
  "proteins": {"B1": {"name": "Lysozyme C wild type, P61626 (protein)", "chain": "MKALIVLGLVLLSVTVQGKVFERCELARTLKRLGMDGYRGISLANWMCLAKWESGYNTRATNYNAGDRSTDYGIFQINSRYWCNDGKTPGAVNACHLSCSALLQDNIADAVACAKRVVRDPQGIRAWVAWRNRCQNRDVRQYVQGCGV"}},
  "details": "Homo sapiens, reversible: yes, whole UniProt chain shown",
  "key": {"[1]": {"details": "pH 2.7, Thermal, DSC, glycine-HCl 0.05 M"}, "[2]": {"details": "pH 4, 10 °C, GdnHCl, CD, glycine-HCl 40 mM"}},
  "data": [
    {"protein": "B1", "values": [
      {"measurement": "Tm", "setting": "[1]", "value": 64.9, "unit": "°C"},
      {"measurement": "heat capacity change of unfolding", "setting": "[1]", "value": 1.58, "unit": "kcal/mol/K"},
      {"measurement": "unfolding enthalpy (calorimetric)", "setting": "[1]", "value": 477, "unit": "kJ/mol"},
      {"measurement": "denaturant midpoint (higher = more stable)", "setting": "[2]", "value": 3.96, "unit": "M"},
      {"measurement": "unfolding free energy", "setting": "[2]", "value": 60, "unit": "kJ/mol"}
    ]}
  ]
}
